This passage reports decrease of co-precipitated GRP75 against wild-type ORF2 results from paper PMC12817929.

This experiment deals with HEV-ORF2 mutant lacking all three KFERQ-like motifs (ORF2ΔCMA) (hepatitis E virus genotype 3 (HEV-3), KernowC1-p6 strain). The experiment in a line: co-IP; HEK-293T transfected with plasmids for HSC70 and GRP75 together with WT ORF2 or ORF2ΔCMA for 48 h, NP-40 lysis, IP with Mab-2G8, blots for HSC70 and GRP75.

On to “GRP75 expressed from plasmid in HEK-293T cells together with HSC70 and ORF2 (tag not stated) (from UniProt P38646 47-679) (natural protein)”, for which the decrease of co-precipitated GRP75 against wild-type ORF2 stood at 50%.
